# Reference: patent US20240228612A1 (SICHUAN KELUN BIOTECH BIOPHARMACEUTICAL, published 2024)
# T1: human Nectin-4 protein (human, UniProt Q96NY8 32-349)
# T1 construct: Purified protein used for coating in ELISA and as analyte in Octet; also called human Nectin-4 antigen
# T1 sequence (looked up): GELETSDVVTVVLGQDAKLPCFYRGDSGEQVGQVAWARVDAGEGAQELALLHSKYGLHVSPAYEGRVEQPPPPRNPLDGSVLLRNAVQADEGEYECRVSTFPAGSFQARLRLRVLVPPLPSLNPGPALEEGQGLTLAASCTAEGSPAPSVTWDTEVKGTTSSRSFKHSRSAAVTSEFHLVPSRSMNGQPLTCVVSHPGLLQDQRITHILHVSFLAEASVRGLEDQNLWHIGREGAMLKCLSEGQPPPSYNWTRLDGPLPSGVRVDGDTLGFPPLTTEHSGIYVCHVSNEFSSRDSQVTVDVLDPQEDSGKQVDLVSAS
# B1: anti-human Nectin-4 humanized monoclonal antibody 56HZ (antibody, human IgG1, kappa, V domains shown)
# VH: QVQLQESGPGLVKPSQTLSLTCTVSGYFNSITSDYDWHWIRHHPGKGLEWMGYISFSGRTYYNPSLKSRVTISHDTSKNQFSLKLSSVTAADTAVYYCARGNYDGFDYWGQGTLVTVSS
# VL: DIVLTQSPATLSLSPGERATLSCRASQNIGTSIHWYQHKPGQSPRLLIKFASESISGIPARFSGSGSGTDFTLTISSLEPEDFAVYYCQQSKSWPTYTFGGGTKVEIKR
# notes: Human IgG1 heavy chain constant region, human kappa light chain constant region; expressed in CHO-E cells
# Target: T1, human Nectin-4 protein
# Experiment: ELISA, coated human Nectin-4, anti-human-HRP
# Excerpt: The Nectin family includes members of Nectin-1, Nectin-2, Nectin-3 and Nectin-4, and the members share a sequence identity of about 25%, but have similar structure and function. […]
binder,measurement,value
B1,EC50 (read off the curve),~6 ng/mL
